System: MS2 coat protein
Experiment: apparent KD of MS2 coat protein; designed switch direction (-1 OFF switch, 1 ON switch): -1; higher = weaker reporter binding
How it was run: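 Designed RNA switches sharing common flanks were transcribed on Illumina chips by stalled E. coli RNA polymerase. They were titrated with SNAP-549-labelled MS2 coat protein, from 0.7 or 1.5 nM doubling to 3 µM, in Tris-HCl pH 7.5 buffer with KCl, MgCl2, BSA, DTT, tRNA and Tween-20. Titrations ran without input, with 200 uM small-molecule ligand, or with an oligonucleotide input. The apparent KD of each design is the median over its clusters, after curve-fitting of normalised cluster fluorescence.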

[1] = Eterna round: R95, input ligand: FMN 200 uM
[2] = Eterna round: R95, input ligand: microRNA oligo, concentration not stated
[3] = Eterna round: R95, input ligand: none
[4] = input ligand: microRNA oligo, concentration not stated

Sequence	apparent KD of MS2 coat protein (input ligand: FMN 200 uM) [nM]	apparent KD of MS2 coat protein (input ligand: none) [nM]	apparent KD of MS2 coat protein [1] [nM]	apparent KD of MS2 coat protein [2] [nM]	apparent KD of MS2 coat protein [3] [nM]	apparent KD of MS2 coat protein [4] [nM]
GGUUGGCGAGGAUAUACAUGAGGAUCACCCAUGUGGUCCUGUGGCUGGAAAAACCUUUGUAGAAGGCGCGGGUC [salish99_ex3_r4_028] (Eterna round: R97, puzzle: Exclusion 3)	258	184				
ACCUCACAUGAGGAUCACCCAUGUCAGGAUAUAAUUUCAAACAUCAAUCGCGGCGCUGAGAGAAGGGUCAAAAC (Eterna round: R97, puzzle: Exclusion 1)	15.7	15.9				
UUACUAUGUCGCUUAAUAGCUUUUUGCUCGUCUUAUAUUACAUGAGGAUCACCCAUGUAGAUCAUGUGGCGUGACCU [JL ViennaUCT Maridi mod 6] (puzzle: Sensor v3, turn-off variant 2)			247	36	237	
GCAGCAUAGUUAACAUACUGUUACAUGAGGAUCACCCAUGUACAGGAUAUGGUCUGGAUUACAGGCCAGAAGGGUACAAGCUGC [Eli exng3 - 020] (Eterna round: R96, puzzle: Exclusion NG 3)	10.7	12.6				7.8
AAAGGAUGCCUAGGAUAUUGACGAAGAAAGGAUUAAGAAGGAGGAAAUAUAUGAGGGAUCCACAUGAGGAUCACCCAUGUACAC [Beveinveor] (Eterna round: R96, puzzle: Exclusion NG 1)	538	270				458
GGCAAUAUGUAGGAUAUCGUAAUGGAAACAUUACGAGAAGGGCAAACAUGAGGAUCACCCAUGUUCCUUAAGCC [Mat - Exclusion 6 - Eli Mod - D69] (puzzle: Exclusion 6)			21.5	15	18.4	
CCAUCACAUGAGGAUCACCCAUGUUAGGAUAUCGUGCUGAUACCAUGUAUUGAAGUAGCGAGAAGGAGCGUUGG [Eternabot (L1) Solution 53] (Eterna round: R97, puzzle: Exclusion 1)	83.6	48				
GGAUCGAGUGUGAGGAUAUGCUGGUCCUUGGAUCAGCAGAAGGCACAUGAGGAUCACCCAUGUGAAGACGGUCC [JL bmx4 3.16] (puzzle: Brourd's mod of Exclusion 4)			270	24.7	25.8	
AAUACAAGCUAUUGAUCCCACAUGAGGAUCACCCAUGUAGCUGGCCGUGAGACCAGCUUUACGAUAGCUCGUCUUAU [Sensor-V1 #50] (Eterna round: R97, puzzle: Sensor, turn-off variant 1)	261	263				
UUGAUAUGAGGAUAUUGCUAAGUCGACAUGAGGAUCACCCAUGUGAAGGAAUGUUUAUUGCAAGAAGGCGUCGCGG [Eternabot (L1) Solution 10] (Eterna round: R97, puzzle: Exclusion 5)	49.5	60.5				
AACCAUGAGCGAGGAUAUCACCCUACGGAGUGGUGAGAAGGCGCAACAUGAGGAUCACCCAUGUACAAAUGCGGGACCCUUUUC [Zaorredila] (Eterna round: R96, puzzle: Exclusion NG 1)						21.6
GGUGUGAGGCAGGAUAUGCAAUAAGUAAGUAAAGCAGAAGGGUCUACAUGAGGAUCACCCAUGUGUGCGGUAGA [Ex6 #1] (Eterna round: R97, puzzle: Exclusion 6)	249	163				
GCGCCUUGAGUGAGGAUAUGUUCAUAGUCGCUUGGAUAGAAGGCACAUGAGGAUCACCCAUGUAUCGGAGUUAA [Eternabot (L2) Solution 39] (Eterna round: R97, puzzle: Brourd's mod of Exclusion 4)	48.2	33.9				
AUAAUGUCAGGAUAUCAGUCGUACAGCCUCGGCUGUACGACUGAGAAGGGACAUGAGGAUCACCCAUGUGGUUA [E4/7-A2] (Eterna round: R97, puzzle: Exclusion 4)	34.2	562				
UACGAGUUAGGAUAUGCAUUGGGCUCGCUUUCCUUCGAUAAACUUGAGGAUCACCCAAGUAGAAGGAACUUGUA [Mod 35 - Jieux - Exclusion 2] (Eterna round: R97, puzzle: Exclusion 2)	42.3	16.4				
GAUGUUUAAGGAUAUACAAUGAAUGUAUGCCACAUGGAAAUACAUGAGGAUCACCCAUGUAGAAGGUAAGGGAU [Eternabot (L2) Solution 37] (Eterna round: R97, puzzle: Exclusion 2)	27.1	20.5				
AAGCAACAUGAGGAUCACCCAUGUUAGGAUAUACGCAUGCAUGCAUGCAUGCAUGCAAGUAGAAGGAACCAUGC [Design #15] (Eterna round: R97, puzzle: Exclusion 1)	32	49				

Sequence	apparent KD of MS2 coat protein (input ligand: FMN 200 uM) [nM]	apparent KD of MS2 coat protein (input ligand: none) [nM]	apparent KD of MS2 coat protein [1] [nM]	apparent KD of MS2 coat protein [2] [nM]	apparent KD of MS2 coat protein [3] [nM]	apparent KD of MS2 coat protein [4] [nM]
UUUAAUUUUUUUUUUUUACAAGCUUUUUGCUCGUCUUAUACAUGAGGAUCACCCAUGUGGGUGAAAGAUAAAUUAUC [JMF 5] (puzzle: Sensor v3, turn-off variant 2)			54.9	19.2	37.6	
AGAAGACAUGAGGAUCACCCAUGUAAGGAUAUCGAAGGUAUGAGAGGAAAGAGGUUAACGAGAAGGUACAGGUG [JR_Exclu1_Sub098] (puzzle: Exclusion 1)			85.9	74.1	130	
AGUACUAACACGAAUGUGUUAGUACAAUAAGCUUGUGAAACAUGAGGAUCACCCAUGUCCUCAUAAGCUCGUCUUAU [salish99_TOv2_r3_032] (puzzle: Sensor v3, turn-off variant 2)			16.3	779	15.5	
ACAUGAGGAUCACCCAUGUGACAAGAAUGGCUGAUACAGAGAUAGGAUAUAGGUGCAUAUCUAACCUAGAAGGGUCAUGACUGG [Deportation 75 - Jieux - Exclusion NG 3] (Eterna round: R96, puzzle: Exclusion NG 3)	53.4	37				34.3
ACAUGAGGAUCACCCAUGUGACCACGAUGGCUGAUGUAGACCUAGGAUAUGAGUGAAUAUCUAUCUCAGAAGGAGGUUGACUGG [Deportation 50 - Jieux - Exclusion NG 3] (Eterna round: R96, puzzle: Exclusion NG 3)	46.7	61.2				52.1
UCGAUGCGAGGAUAUACUAAGGCAACUACUGCAGCUCAAAAACAUGAGGAUCACCCAUGUAGAAGGCGCAUAUA [JR_Exc002_Sub304] (Eterna round: R96, puzzle: Exclusion 2)						12.9
AGUACUAACACGAAAGUGUUAGUACUAUAAGCUUGUGAUACAUGAGGAUCACCCAUGUCCUCAUAAGCUCGUCUUAU [Mat - Sensor v3 - Turn-off var 2 - D101] (Eterna round: R96, puzzle: Sensor v3, turn-off variant 2)	21.1	21.7				477
GGAAAAAAAGUGAGGAUAUCCGGAGGGAAACCUCCGGAGAAGGCACAUGAGGAUCACCCAUGUAAAAAAAAAAA [AK-MS2ROC-r4-Bmoexclusion4-1] (Eterna round: R97, puzzle: Brourd's mod of Exclusion 4)	59.9	30.5				
CAGUCAGCGCAGGAUAUCUGCUCGGUGACAGACGGAGAAGGGUGCACAUGAGGAUCACCCAUGUGAAUCUCUAA [Eternabot (Original) Solution 3] (Eterna round: R97, puzzle: Exclusion 6)	21.4	28.5				
UAUGAGUCAGGAUAUUAGUAGUGUGUGGAUACAUAUAUUGCUGAGAAGGGACAUGAGGAUCACCCAUGUAUAAG [JR_Ex4_Sub056] (Eterna round: R97, puzzle: Exclusion 4)	65.3	26.1				
GCAGGAUAAGUCAGGAUAUACCUAUGGAUACAUAGGUAGAAGGGACAUGAGGAUCACCCAUGUGACUCGCCUGC [Fiskers BMX 4 - 73] (puzzle: Brourd's mod of Exclusion 4)				27.6		
AGGUCACAUGAGGAUCACCCAUGUCAGGAUAUCUACAUUGAAGCUUCGGCUUCAAUGUAGAGAAGGGACAAUUA [E1/6-B1] (Eterna round: R97, puzzle: Exclusion 1)	341	75.7				
ACAUGUGUUGUAGGAUAUAGGACACAUGAGGAUCACCCAUGUGGAUUCAUGUCUAAGGAAGCGUCCUAGAAGGACGACAACAUG [Ex NG2 #26] (Eterna round: R96, puzzle: Exclusion NG 2)	29.1	20				16.3
CUGAGCAGACGAAGAUCCAACAUGAGGAUCACCCAUGUCUCAAAAGCUUUUUGCUCGUCUUAUCCUUCUCUGUUCUC [Reisedzaqu] (puzzle: Sensor v3, turn-off variant 1)			16	176	13	
AGGUAACAUGAGGAUCACCCAUGUCAGGAUAUCAGGAAGAUUAGAAUAGAGUAGAGGAUGAGAAGGGACUAUAU [Excluse me! 18- Jieux - Exclusion 1] (puzzle: Exclusion 1)			31	31.7	43.1	
AGGGAACAUGAGGAUCACCCAUGUGAGGAUAUACAAAAGAAAAGAAAAGAAAGAAGAAGUAGAAGGUACAAGAA [Neferka] (Eterna round: R96, puzzle: Exclusion 1)	32.4	32.8				26.9
